Tests used:
[1] = biological target: GST-XIAP linker BIR 2 [GST: P08515]
[2] = biological target: GST-linker BIR 2 BIR3Ring
Sequence of GST-linker BIR 2 BIR3Ring (chain, as listed by the source): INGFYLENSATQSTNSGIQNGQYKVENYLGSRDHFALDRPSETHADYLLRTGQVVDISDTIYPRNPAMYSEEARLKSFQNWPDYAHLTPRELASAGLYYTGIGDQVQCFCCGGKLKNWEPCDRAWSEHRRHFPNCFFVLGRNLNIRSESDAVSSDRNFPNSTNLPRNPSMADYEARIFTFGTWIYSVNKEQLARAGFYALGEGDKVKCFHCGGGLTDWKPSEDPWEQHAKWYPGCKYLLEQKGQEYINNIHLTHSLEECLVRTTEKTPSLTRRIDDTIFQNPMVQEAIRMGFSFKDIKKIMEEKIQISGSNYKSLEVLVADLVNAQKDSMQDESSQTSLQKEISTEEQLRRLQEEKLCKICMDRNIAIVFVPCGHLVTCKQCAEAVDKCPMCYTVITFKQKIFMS

B1: caspase-3 (protein)
chain: SGISLDNSYKMDYPEMGLCIIINNKNFHKSTGMTSRSGTDVDAANLRETFRNLKYEVRNKNDLTREEIVELMRDVSKEDHSKRSSFVCVLLSHGEEGIIFGTNGPVDLKKITNFFRGDRCRSLTGKPKLFIIQACRGTELDCGIETDSGVDDDMACHKIPVEADFLYAYSTAPGYYSWRNSKDGSWFIQSLCAMLKQYADKLEFMHILTRVNRKVATEFESFSFDATFHAKKQIPCIVSMLTKELYFYH
Caspase 3 activity (DEVD-AMC hydrolysis, Vo of AMC fluorescence/sec) [1]: caspase-3 was inhibited by linker-BIR2 or linker BIR2-BIR3-RING of XIAP | Caspase 3 activity (DEVD-AMC hydrolysis, Vo of AMC fluorescence/sec) [2]: caspase-3 was inhibited by linker-BIR2 or linker BIR2-BIR3-RING of XIAP
